Earlier results on one substance are cited in article PMC6470598.

This data set addresses CTLA-4 (Homo sapiens) (UniProt P16410).
Sequence of UniProt P16410 (P16410 36-161): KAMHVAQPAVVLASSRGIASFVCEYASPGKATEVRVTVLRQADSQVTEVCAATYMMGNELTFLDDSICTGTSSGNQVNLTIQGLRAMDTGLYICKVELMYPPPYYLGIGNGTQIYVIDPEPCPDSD

Regarding tremelimumab, the Kd was 5.9 nM.
